From article PMC2920127 (Nature structural & molecular biology, 2010)

Target: recombinant full-length His-tagged human PABPC1 (human, UniProt P11940 1-636)
Assay: pull-down

recombinant full-length His-tagged human PABPC1, sequence (P11940 whole entry): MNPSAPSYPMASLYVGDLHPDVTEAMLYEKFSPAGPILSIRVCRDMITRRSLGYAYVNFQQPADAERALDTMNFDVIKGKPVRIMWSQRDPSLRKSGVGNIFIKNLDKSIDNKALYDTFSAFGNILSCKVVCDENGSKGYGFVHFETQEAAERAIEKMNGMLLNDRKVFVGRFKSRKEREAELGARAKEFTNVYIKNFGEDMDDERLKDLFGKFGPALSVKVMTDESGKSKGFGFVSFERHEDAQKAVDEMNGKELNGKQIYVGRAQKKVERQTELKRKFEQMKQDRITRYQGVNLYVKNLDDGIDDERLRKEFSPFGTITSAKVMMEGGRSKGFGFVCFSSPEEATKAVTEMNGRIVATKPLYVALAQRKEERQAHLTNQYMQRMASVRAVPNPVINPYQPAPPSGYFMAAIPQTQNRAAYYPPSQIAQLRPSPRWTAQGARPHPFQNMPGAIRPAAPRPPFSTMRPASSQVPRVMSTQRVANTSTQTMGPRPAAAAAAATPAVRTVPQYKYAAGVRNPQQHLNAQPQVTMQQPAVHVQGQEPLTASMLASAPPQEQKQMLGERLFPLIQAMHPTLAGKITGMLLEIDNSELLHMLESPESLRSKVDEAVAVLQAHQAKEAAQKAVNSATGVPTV

binding result	Binder
binds	GST-fused TNRC6C fragment 1242-1601 (domain or fragment, human, UniProt Q9HCJ0-1 1242-1601, looked up) PQTPGLPDLQTKEQQSSPNTFAPYPLAGLNPNMNVNSMDMTGGLSVKDPSQSQSRLPQWTHPNSMDNLPSAASPLEQNPSKHGAIPGGLSIGPPGKSSIDDSYGRYDLIQNSESPASPPVAVPHSWSRAKSDSDKISNGSSINWPPEFHPGVPWKGLQNIDPENDPDVTPGSVPTGPTINTTIQDVNRYLLKSGGKLSDIKSTWSSGPTSHTQASLSHELWKVPRNSTAPTRPPPGLTNPKPSSTWGASPLGWTSSYSSGSAWSTDTSGRTSSWLVLRNLTPQIDGSTLRTLCLQHGPLITFHLNLTQGNAVVRYSSKEEAAKAQKSLHMCVLGNTTILAEFAGEEEVNRFLAQGQALPP
binds	GST-fused TNRC6C fragment 1364-1601 (domain or fragment, human, UniProt Q9HCJ0-1 1364-1601, looked up) PHSWSRAKSDSDKISNGSSINWPPEFHPGVPWKGLQNIDPENDPDVTPGSVPTGPTINTTIQDVNRYLLKSGGKLSDIKSTWSSGPTSHTQASLSHELWKVPRNSTAPTRPPPGLTNPKPSSTWGASPLGWTSSYSSGSAWSTDTSGRTSSWLVLRNLTPQIDGSTLRTLCLQHGPLITFHLNLTQGNAVVRYSSKEEAAKAQKSLHMCVLGNTTILAEFAGEEEVNRFLAQGQALPP
